In article PMC7884448:

B1: mitochondrial antiviral signaling protein (MAVS): S366A (protein)
parent chain: MPFAEDKTYKYICRNFSNFCNVDVVEILPYLPCLTARDQDRLRATCTLSGNRDTLWHLFNTLQRRPGWVEYFIAALRGCELVDLADEVASVYQSYQPRTSDRPPDPLEPPSLPAERPGPPTPAAAHSIPYNSCREKEPSYPMPVQETQAPESPGENSEQALQTLSPRAIPRNPDGGPLESSSDLAALSPLTSSGHQEQDTELGSTHTAGATSSLTPSRGPVSPSVSFQPLARSTPRASRLPGPTGSVVSTGTSFSSSSPGLASAGAAEGKQGAESDQAEPIICSSGAEAPANSLPSKVPTTLMPVNTVALKVPANPASVSTVPSKLPTSSKPPGAVPSNALTNPAPSKLPINSTRAGMVPSKVPTSMVLTKVSASTVPTDGSSRNEETPAAPTPAGATGGSSAWLDSSSENRGLGSELSKPGVLASQVDSPFSGCFEDLAISASTSLGMGPCHGPEENEYKSEGTFGIHVAENPSIQLLEGNPGPPADPDGGPRPQADRKFQEREVPCHRPSPGALWLQVAVTGVLVVTLLVVLYRRRLH
B2: mitochondrial antiviral signaling protein (MAVS): Thiamet-G (protein)
parent chain: B1 parent chain

Experiments:
[1] = SDD-AGE of MAVS aggregates, HEK293; conditions: glycan lost; control: wild type
[2] = cycloheximide chase, HEK293 and A549; conditions: glycan gained; control: without Thiamet-G

Protein	oligomerisation [1]	degradation_or_half_life [2]
B1	no change	–
B2	–	no change
